This is an account of results in patent EP4722370A1.

Experiment [1] addresses his-tagged DLL3 antigen protein (UniProt Q9NYJ7). The experiment is described as follows: flow cytometry; transduced T cells, method of the earlier example (his-tagged DLL3 staining).
Experiment [2] shares this target. The experiment is described as follows: flow cytometry; transduced T cells with 3 ug/ml his-tagged DLL3, AF647 secondary antibody. On the technique in general: Flow cytometry measures light scatter and fluorescence of single cells or particles in a stream.

UniProt Q9NYJ7, sequence (Q9NYJ7 27-492 limits assumed): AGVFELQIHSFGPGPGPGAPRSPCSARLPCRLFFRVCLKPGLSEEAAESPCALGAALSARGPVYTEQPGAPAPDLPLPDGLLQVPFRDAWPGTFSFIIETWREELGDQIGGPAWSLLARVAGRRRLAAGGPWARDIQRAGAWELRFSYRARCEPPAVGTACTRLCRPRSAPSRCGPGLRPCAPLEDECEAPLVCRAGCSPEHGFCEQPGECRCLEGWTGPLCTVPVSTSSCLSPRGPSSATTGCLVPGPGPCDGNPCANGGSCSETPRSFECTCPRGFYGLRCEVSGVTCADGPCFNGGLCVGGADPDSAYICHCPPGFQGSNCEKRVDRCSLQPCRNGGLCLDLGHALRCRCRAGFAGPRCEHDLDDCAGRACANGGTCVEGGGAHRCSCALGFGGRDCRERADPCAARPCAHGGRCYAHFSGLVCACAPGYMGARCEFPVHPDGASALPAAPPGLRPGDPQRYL

B1: DLL3-CAR09 (protein)
chain: DIVMTQSPLSLPVTPGEPASISCRASQTISDYLHWYLQKPGQSPQLLIKYASQSISGVPDRFSGSGSGSDFTLKISRVEAEDVGVYYCQQGHSFPLTFGQGTKLEIKGGGGSGGGGSGGGGSEVQLVQSGAEVKKPGASVKVSCKASGYTFTSYWMHWVRQAPGQRLEWMGTIYPGNSDTRYNQKFKDRVTITADTSASTAYMELSSLRSEDTAVYYCTRSYDYGDLDYWGQGTTVTVSSAAAIEVMYPPPYLDNEKSNGTIIHVKGKHLCPSPLFPGPSKPFWVLVVVGGVLACYSLLVTVAFIIFWVRSKRSRLLHSDYMNMTPRRPGPTRKHYQPYAPPRDFAAYRSRVKFSRSADAPAYQQGQNQLYNELNLGRREEYDVLDKRRGRDPEMGGKPRRKNPQEGLYNELQKDKMAEAYSEIGMKGERRRGKGHDGLYQGLSTATKDTYDALHMQALPPR
On to B1, for which the values for the CAR expression level (% of T cells stained with his-tagged DLL3 antigen protein) in experiment [1] and in experiment [2] were 74% and 69%, respectively.
